How the values were obtained:
[1] = tested on: TALEN right arm (pCLS9996) (artificial (Xanthomonas TALE?)); experiment: cell_activity; details: paired with left arm P2; 153 of 153 galactose colonies of homozygous sup4-(CAG) diploid yeast show repeat contraction; >99% gene conversion in heterozygous …
[2] = tested on: TALEN left arm (pCLS16715) (artificial (Xanthomonas TALE?)); experiment: cell_activity; details: paired with right arm P1; 153 of 153 galactose colonies of homozygous sup4-(CAG) diploid yeast show repeat contraction; >99% gene conversion in heterozygous …

Sequence: GCTGCTGCTGCTGCT (double strand) [right TALE target site in sup4-(CAG)]
- activity [1]: 100%

Sequence: GTGATCCCCCCAGCA (double strand) [left TALE target site in sup4-(CAG)]
- activity [2]: 100%

— patent publication US20170029794
